Our source for the amyloid nucleation score values is the supplement of paper PMC12042874.

The data set in a line: amyloid nucleation score (Sup35N fusion, yeast selection) (log enrichment); library NNK2; higher = more nucleation; inactive = no reads after selection. The method, boiled down:
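After 24 hours of induction with 100 μM copper sulfate, psi-negative yeast expressing peptides of 20 random codons fused to Sup35N were grown for 7 days at 30°C on medium lacking adenine and uracil. Input and output plasmid inserts were sequenced with Illumina, and sequences with under 100 input reads were discarded. Scores for nucleation are the DiMSum log enrichment of output over input reads, centred on the mode score of non-aggregating sequences.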

± gives the uncertainty stated by the source.

GYQRNYSFAVSMEARSVVPG gave an amyloid nucleation score of 4.12 ± 0.058.

On to HGCLYFRFLNALSSFGGYRA, for which the amyloid nucleation score was -1.7 ± 1.

The substance NHTLVLLIRNSNVHVSTAQS yielded an amyloid nucleation score of 10.78 ± 0.07. In turn, IDWIGPIYMHIAVMMVTVFQ had an amyloid nucleation score of 4.924 ± 0.033.

For RNITVTIFCLTAHRA, the amyloid nucleation score was found to be 9.317 ± 0.054.

FWQVCPLYRSSCIGSGCCIK registered an amyloid nucleation score of 1.78 ± 0.17. NLTFACVVYANWVILTHGAR: the amyloid nucleation score came out at 6.336 ± 0.061. Substance ASDPIMTVSRPIPMHPLY registered an amyloid nucleation score of -0.172 ± 0.76. DLWRLMEIFMRSMRWHGITT displayed an amyloid nucleation score of -0.456 ± 0.32. Regarding SNYVSTHRIWFGYSWCKQEK, the amyloid nucleation score was determined as 4.24 ± 0.13. VPFGQTAVLSEGDSEVGGMK returned an amyloid nucleation score of -0.228 ± 1.1. The value for IMNGLMDFMLTKVLKDMFNW was -0.249 ± 1.1; that for AYFRLWVRAWTLASGE was 0.938 ± 0.2. TFMWVDSMP: the amyloid nucleation score is -0.525 ± 0.48. As to PFFLMISAVISHHNEHRHTM, the amyloid nucleation score stood at 5.926 ± 0.058.

In the case of RVISFIYWSVTGDSDCLLWC, the amyloid nucleation score is 4.24 ± 0.067. As for IQLIRHCSSLNRTYQVSVSR, the amyloid nucleation score stood at 0.364 ± 0.3.

RSRSGVLVERFMAVSWDAWH had an amyloid nucleation score of 5.691 ± 0.051. In the case of FILSQWYKGSECTTCRRLWG, the amyloid nucleation score was -0.318 ± 0.4. Turning to SFRTAHSAPEVGMLEVYMNL, the amyloid nucleation score stood at 0.334 ± 0.5. For the substance YGIRYYICKFMLKSFICSWY, the amyloid nucleation score is -1.33 ± 1.1. Consider KECVHHDHFYG, for which the amyloid nucleation score entry is “inactive”. For TICWHGFNR, the amyloid nucleation score was 0.119 ± 0.76. As to RTWCDGGCPV, the amyloid nucleation score is 0.653 ± 0.81. For FLMGVPEIFFPLVVSDYMYV, the amyloid nucleation score result was “inactive”. The value for VRGAVSLL was -0.64 ± 0.29.

In turn, VLCLNFHGANVGWDLTTVYT gave an amyloid nucleation score of 1.02 ± 0.17. The value for SMSIYKAAYSFVTGSP was 7.475 ± 0.026. Regarding IFRTFFIYKEFCGFLWCVGG, the amyloid nucleation score was 1.02 ± 0.32. The substance NRNLSYHT displayed an amyloid nucleation score of 0.633 ± 0.8.

With FYCSNSKFW, the amyloid nucleation score stood at 3.5 ± 0.074.

Turning to SLGEGISFIVWCDGILLLGC, the amyloid nucleation score was -1.15 ± 0.76.

The substance FFYHLCASVRLA displayed an amyloid nucleation score of -1.11 ± 0.78. Turning to GLNCTIV, the amyloid nucleation score is 1.67 ± 0.32. As to TQVLYSSCFVVVLSYLSRQD, the amyloid nucleation score was determined as 4.51 ± 0.086. The value for DSPRRTFIVQASHFTVYLTR was 8.111 ± 0.058; that for PGSRTWFGTMLAPDTCLHEM was 1.7 ± 0.16.

Substance LNLFWKQSGTVRLDDGWRSV yielded an amyloid nucleation score of 0.969 ± 0.74.

Take IRKIMVF: the amyloid nucleation score entry was “inactive”. To SNEKVAQSLFAKEREPLRGN belongs 2.35 ± 0.12; to TTVKYG, 0.553 ± 0.22. As to YFGSIIIYRIPAVPQILSVN, the amyloid nucleation score entry is “inactive”.

AYCRGFYYIIALVSSPEQKR had an amyloid nucleation score of 0.175 ± 0.34. In turn, YFGGFAKRQSTLPATRKYRL gave an amyloid nucleation score of 1.34 ± 0.52. The substance RMVSPSPMAQNKLGYATTLG yielded an amyloid nucleation score of 0.02 ± 0.49. Regarding YLLGKSYF, the amyloid nucleation score is -1.08 ± 0.36.

LYENWPCFT registered an amyloid nucleation score of -0.199 ± 0.53. GCNLFYCLTRSSIETNTSIS: the amyloid nucleation score was 4.3 ± 0.095. Substance STMLWLCFFMGKLSVDTVFE displayed an amyloid nucleation score of -0.6 ± 0.53. Substance GIFGMC had an amyloid nucleation score of 0.366 ± 0.56. For the substance SGSALLIEFRYSTSFREKRI, the amyloid nucleation score is 5.687 ± 0.046. Take MMYISSGVFWTE: the amyloid nucleation score entry was “inactive”. As to TLTNHWLRSLCITSKGTLSC, the amyloid nucleation score entry was “inactive”. As for DRNMRNLEIISVH, the amyloid nucleation score is -0.091 ± 0.23. Regarding STLGPLGPSGYSRRARRLLA, the amyloid nucleation score amounted to 7.415 ± 0.06.

As for CEWHYRRGFMMIGVMWNAVF, the amyloid nucleation score amounted to 0.427 ± 0.36. Take VCIVDLVS: the amyloid nucleation score is -0.203 ± 0.65.

Turning to RLMQSVMCRRDLLL, the amyloid nucleation score amounted to 0.883 ± 0.47.

ITEYSYWSGIPSSMVSPIKH registered an amyloid nucleation score of -0.459 ± 0.28. On to HSSIIKSVAWAFNYDA, for which the amyloid nucleation score is 0.159 ± 0.42. The value for FDQTFEDWWPAYNHSRFNQH was 0.352 ± 0.51; that for SLRYSMRPMAFRFKHPLAPT was -0.166 ± 0.28. To IIWYTTFVDLLTIIDDGRLW belongs 0.499 ± 0.49; to YSTTDHKWSRNLGIIMVVMW, 0.185 ± 0.48. Take WYSMISLSRTNIYRMFYVPV: the amyloid nucleation score was -0.453 ± 0.53.

NNNCGRLGVYI: the amyloid nucleation score was -0.962 ± 1. Regarding PLRNGDGVSFLGSVLSWPQA, the amyloid nucleation score is -0.294 ± 1.1. For MKIYARIMSFLWATVKCVGY, the amyloid nucleation score entry was “inactive”. As for KIVWCLVYNRDYYLQYRTIS, the amyloid nucleation score was -0.625 ± 0.27. IIRDPTACTFLVCVSYME came in with an amyloid nucleation score of 6.27 ± 0.059.

The substance AFSMRVGDFEIHRFSVVFRR gave an amyloid nucleation score of -0.247 ± 0.53.

Substance RIYLVAIYL came in with an amyloid nucleation score of 3.49 ± 0.067. Substance VNFVLGVL gave an amyloid nucleation score of 0.086 ± 0.19. On to YVLKLRRSRQSLSHRPALLY, for which the amyloid nucleation score entry was “inactive”.

For ILWDRISFNMLRLTRCRFFF, the amyloid nucleation score was -0.632 ± 1.1.

As to MSSYDF, the amyloid nucleation score entry is “inactive”. To TPNYLSHTVVCVCINNVLIF belongs 4.74 ± 0.058; to YNMGNSGLGGTRWEIICFAI, -1.02 ± 0.5.

On to RVLTGWVVA, for which the amyloid nucleation score was 0.215 ± 0.76. As to MMVAGLFLGAFFLISTKGVK, the amyloid nucleation score worked out at 4.43 ± 0.064.

On to WAYAVNPTCYNFVGTGGSCS, for which the amyloid nucleation score is 2.44 ± 0.11.

IMTHLVSTR returned an amyloid nucleation score of 1.5 ± 0.3. Regarding KFSKGSPGWWHQGSLCMVAM, the amyloid nucleation score turned out to be 1.51 ± 0.58. Turning to LLLSRGFMGVSKRSMVYRRV, the amyloid nucleation score result is “inactive”. Take HYAANVVRISYCGGHSRANF: the amyloid nucleation score turned out to be 5.1 ± 0.077. The value for SWELFSGAWTLGNRYPFRHK was -0.079 ± 0.55. In the case of SLPCRIISNLYLPA, the amyloid nucleation score was -1.23 ± 1.1.

The substance YWSVV came in with an amyloid nucleation score of 3.73 ± 0.11. For LCGAKRFMRVQAFEQNVYSR, the amyloid nucleation score amounted to 0.401 ± 0.37.

In turn, NLMVVRRSDHSRPGNCHWQA registered an amyloid nucleation score of 0.381 ± 0.3. With IMVVEQYLYYYSKVCTFFSV, the amyloid nucleation score result is “inactive”. MIGDYTSFCMGSGF: the amyloid nucleation score result is “inactive”.

The substance CWLFNTY displayed an amyloid nucleation score of 3.04 ± 0.14. The value for SCCRGEF was -0.235 ± 0.61; that for KAIGCAIKTFRYIYWIIWLL was “inactive”; that for CYSKLNASSVCIKFLPSQHE was -0.314 ± 0.27. With RFHRYTILLLLTPEWTEHAI, the amyloid nucleation score turned out to be 0.52 ± 0.57. As for SWLSYSVRSM, the amyloid nucleation score entry is “inactive”. For the substance LTFNLLSTLTFVRVLVPPLA, the amyloid nucleation score was 0.803 ± 0.34.

Take GHFRFEHCVSVSLSSIFSNE: the amyloid nucleation score was found to be 1.55 ± 0.11. With FVYKTGYVSSVCYGIVVVVD, the amyloid nucleation score was -0.826 ± 0.5.

GILGQGDYYLRN registered an amyloid nucleation score of -0.422 ± 1. Substance NMFSLWVYKLAMFWIY showed an amyloid nucleation score of -0.701 ± 1.1. To ETAQLWYSRVACCKKRVVYG belongs 0.594 ± 0.47; to DSNMRMIA, 0.448 ± 0.6; to FENYYGSHGDFGVYDKFNHL, “inactive”. The value for AYHTMGGWLRVAG was 0.005 ± 1; that for FCMFSNIYVFPSTIF was 7.583 ± 0.02; that for CFKFRYRLGGW was 4.93 ± 0.05. Take HDVSVLYEPTAAGWNRLLQT: the amyloid nucleation score was found to be 0.262 ± 0.54. FITQVHSYWDSISTVTSDIL: the amyloid nucleation score entry was “inactive”. Regarding YYIALWVVGHMGYIDGCTSC, the amyloid nucleation score came to 2.45 ± 0.1.

Consider VRCKVCPGRAYFDMRAPMQS, for which the amyloid nucleation score was -0.512 ± 0.63. For the substance SKLRFAIIFAKHVS, the amyloid nucleation score is -0.322 ± 0.41. To EVLGLV belongs -0.841 ± 0.64; to SFITCRFNRDCFLLQFSWYN, “inactive”; to SRLRNYLKVLSD, -0.474 ± 1.1. On to VLTMHPVRMFLDFFDDMMCY, for which the amyloid nucleation score entry was “inactive”. The value for GTMPNGCKS was 0.541 ± 0.74; that for LFSCFKTEWFCITRMDGLIM was 5.731 ± 0.036; that for CRNQGVCDAGQSLLN was 0.897 ± 0.29. ECSGEHASVQVSTGLGTDVQ showed an amyloid nucleation score of 2.8 ± 0.065. Substance VFNFVSFRFDDTVD showed an amyloid nucleation score of 6.987 ± 0.04. PRSVVPYR: the amyloid nucleation score was 0.5 ± 0.31. Turning to QFILFCIPTPNQ, the amyloid nucleation score was 4.93 ± 0.08. SATRDYHRLWCVVRLLLNAA displayed an amyloid nucleation score of 0.342 ± 0.46.

With IAVATSGP, the amyloid nucleation score was 0.84 ± 0.46. DLYSHSFNLHGYSMRVCYNE: the amyloid nucleation score came out at 0.147 ± 0.65. With SITYTNLMNTLQAIRTSFLA, the amyloid nucleation score is -0.708 ± 1.1. Regarding RLTVTGVALVFKGFAAEYGL, the amyloid nucleation score turned out to be 5.81 ± 0.066. As to NSLLNFVFSVYVKACIIPYT, the amyloid nucleation score result was “inactive”.

The substance IDPADVGILSCCFLNDSKHE showed an amyloid nucleation score of 0.467 ± 0.46.

As for SVDIGYS, the amyloid nucleation score stood at 0.586 ± 0.81. The substance LNVPGSAMNGRSRNPSF displayed an amyloid nucleation score of -0.661 ± 0.48. Regarding FPRDILVS, the amyloid nucleation score is -0.13 ± 0.76. Consider WHNITWYMFGPFMPGGEMLM, for which the amyloid nucleation score turned out to be 0.446 ± 0.5. With NIPRRGIVGWTAL, the amyloid nucleation score result is “inactive”.

Consider YISGQWCLMCRRRGISACVR, for which the amyloid nucleation score is -0.182 ± 0.55. For the substance AEWLINGISDGLDCVSFSNS, the amyloid nucleation score result is “inactive”.
